# Source: patent US7052908B2, “Androgen receptor coactivators” (University of Rochester, priority 1998, dated 2006)
# T1: mARe708k (Homo sapiens, UniProt P10275, E710K)
# T1 construct: expressed in transfected cells; host or cells: DU145
# T1 sequence (P10275 1-920 E710K): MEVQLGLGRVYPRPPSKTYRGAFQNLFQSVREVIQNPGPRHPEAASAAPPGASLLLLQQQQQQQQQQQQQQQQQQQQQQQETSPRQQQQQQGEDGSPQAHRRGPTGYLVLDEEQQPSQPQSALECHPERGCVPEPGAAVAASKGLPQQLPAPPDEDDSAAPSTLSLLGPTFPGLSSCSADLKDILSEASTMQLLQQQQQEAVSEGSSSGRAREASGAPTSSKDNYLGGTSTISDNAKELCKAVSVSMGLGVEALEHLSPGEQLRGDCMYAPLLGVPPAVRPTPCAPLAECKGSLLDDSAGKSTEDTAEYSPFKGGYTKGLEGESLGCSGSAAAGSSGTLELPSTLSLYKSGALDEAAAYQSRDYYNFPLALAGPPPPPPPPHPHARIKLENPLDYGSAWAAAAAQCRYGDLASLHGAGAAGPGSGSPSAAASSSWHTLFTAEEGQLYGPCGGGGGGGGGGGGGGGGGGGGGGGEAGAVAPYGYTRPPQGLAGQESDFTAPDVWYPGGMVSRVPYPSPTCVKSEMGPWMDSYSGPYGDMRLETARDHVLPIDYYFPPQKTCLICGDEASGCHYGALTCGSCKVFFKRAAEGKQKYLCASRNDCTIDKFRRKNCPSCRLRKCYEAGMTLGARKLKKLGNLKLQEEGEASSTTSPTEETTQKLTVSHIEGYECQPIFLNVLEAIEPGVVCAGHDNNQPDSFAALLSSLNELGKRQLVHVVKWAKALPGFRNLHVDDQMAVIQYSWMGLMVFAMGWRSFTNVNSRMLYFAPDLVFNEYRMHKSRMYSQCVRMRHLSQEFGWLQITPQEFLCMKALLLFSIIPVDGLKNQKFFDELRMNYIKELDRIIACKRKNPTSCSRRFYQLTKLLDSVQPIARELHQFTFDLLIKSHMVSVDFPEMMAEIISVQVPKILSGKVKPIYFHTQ
# T2: estrogen receptor (ER) (Homo sapiens, UniProt P03372)
# T2 construct: expressed in transfected cells; host or cells: DU145
# T2 sequence (P03372 1-595): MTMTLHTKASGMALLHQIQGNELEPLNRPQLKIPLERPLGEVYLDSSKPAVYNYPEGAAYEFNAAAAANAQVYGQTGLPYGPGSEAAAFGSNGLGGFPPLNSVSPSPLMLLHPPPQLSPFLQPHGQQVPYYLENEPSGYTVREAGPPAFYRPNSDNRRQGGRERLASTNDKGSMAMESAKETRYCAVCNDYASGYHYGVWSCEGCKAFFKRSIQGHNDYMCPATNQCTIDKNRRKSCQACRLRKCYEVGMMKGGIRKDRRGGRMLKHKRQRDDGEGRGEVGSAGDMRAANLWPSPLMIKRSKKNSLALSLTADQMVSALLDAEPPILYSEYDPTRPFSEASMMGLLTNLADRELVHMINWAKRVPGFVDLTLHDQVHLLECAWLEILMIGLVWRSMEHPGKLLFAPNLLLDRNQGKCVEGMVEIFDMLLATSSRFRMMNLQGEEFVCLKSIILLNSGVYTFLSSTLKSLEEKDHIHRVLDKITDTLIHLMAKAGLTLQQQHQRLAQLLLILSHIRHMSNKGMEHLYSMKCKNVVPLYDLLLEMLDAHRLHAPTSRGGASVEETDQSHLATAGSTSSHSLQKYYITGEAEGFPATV
# T3: glucocorticoid receptor (GR) (Homo sapiens, UniProt P04150)
# T3 construct: expressed in transfected cells; host or cells: DU145
# T3 sequence (P04150 1-777): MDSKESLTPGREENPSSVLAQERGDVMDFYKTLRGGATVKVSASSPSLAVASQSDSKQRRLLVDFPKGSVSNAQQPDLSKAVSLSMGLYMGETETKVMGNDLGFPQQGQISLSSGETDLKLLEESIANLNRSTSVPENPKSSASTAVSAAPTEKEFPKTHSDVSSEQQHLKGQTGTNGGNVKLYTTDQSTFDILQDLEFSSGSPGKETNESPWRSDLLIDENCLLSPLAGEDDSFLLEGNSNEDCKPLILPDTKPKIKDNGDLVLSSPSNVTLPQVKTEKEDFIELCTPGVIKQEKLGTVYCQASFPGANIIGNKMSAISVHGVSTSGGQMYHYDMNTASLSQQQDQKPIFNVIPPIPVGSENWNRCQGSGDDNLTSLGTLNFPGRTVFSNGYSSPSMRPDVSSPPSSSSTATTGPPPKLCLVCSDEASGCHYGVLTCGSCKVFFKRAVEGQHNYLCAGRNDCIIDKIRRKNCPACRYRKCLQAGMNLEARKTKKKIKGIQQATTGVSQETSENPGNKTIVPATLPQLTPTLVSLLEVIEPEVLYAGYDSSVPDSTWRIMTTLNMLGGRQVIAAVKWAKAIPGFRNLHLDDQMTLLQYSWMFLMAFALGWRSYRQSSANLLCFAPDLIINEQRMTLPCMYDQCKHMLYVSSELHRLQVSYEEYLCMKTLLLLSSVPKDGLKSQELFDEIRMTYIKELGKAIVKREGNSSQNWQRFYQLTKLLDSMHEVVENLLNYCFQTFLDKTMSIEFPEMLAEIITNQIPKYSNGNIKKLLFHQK
# B1: ARA55: androgen receptor coactivator, 444 aa, SEQ ID NO:4, 91% homology with mouse hic5 (protein)
# chain: MPRSGAPKERPAEPLTPPPSYGHQPTGQSGESSGASGDKDHLYSTVCKPRSPKPAAPAAPPFSSSSGVLGTGLCELDRLLQELNATQFNITDEIMSQFPSSKVASGEQKEDQSEDKKRPSLPSSPSPGLPKASATSATLELDRLMASLPDFRVQNHLPASGPTQPPVVSSTNEGSPSPPEPTAKGSLDTMLGLLQSDLSRRGVPTQAKGLCGSCNKPIAGQVVTALGRAWHPEHFVCGGCSTALGGSSFFEKDGAPFCPECYFERFSPRCGFCNQPIRHKMVTALGTHWHPEHFCCVSCGEPFGDEGFHEREGRPYCRRDFLQLFAPRCQGCQGPILDNYISALSLLWHPDCFVCRECFAPFSGGSFFEHEGRPLCENHFHARRGSLCPTCGLPVTGRCVSALGRRFHPDHFACTFCLRPLTKGSFQERAGKPYCQPCFLKLFG
# modifications: Homo sapien
# Experiments:
# Format in all cases: cell-based
# mARe708k = target: T1, mARe708k; assay: AR transactivation, transient transfection CAT reporter assay, mutant AR; conditions: mARe708k, DHT 10^-11 to 10^-8 M
# estrogen receptor (ER) = target: T2, estrogen receptor (ER); assay: Steroid receptor transactivation, ERE-CAT reporter in DU145 cells; conditions: DU145
# [1] = target: T3, glucocorticoid receptor (GR); assay: Steroid receptor transactivation, MMTV-CAT reporter in DU145 cells; conditions: DU145, relative to AR
molecule,measurement,setting,value
B1,enhancement of transactivation by ARA55,mARe708k,4–8 fold
same,effect of ARA55 on ER transcriptional activation,estrogen receptor (ER),marginal effect
same,enhancement of GR transcriptional activation by ARA55,[1],to a lesser degree
